From IntAct's records for PubMed 19966221 come the findings set out here.

B1: mRNA-decapping enzyme 1A (Homo sapiens), Q9NPI6 (parent)
chain: MEALSRAGQEMSLAALKQHDPYITSIADLTGQVALYTFCPKANQWEKTDIEGTLFVYRRSASPYHGFTIVNRLNMHNLVEPVNKDLEFQLHEPFLLYRNASLSIYSIWFYDKNDCHRIAKLMADVVEEETRRSQQAARDKQSPSQANGCSDHRPIDILEMLSRAKDEYERNQMGDSNISSPGLQPSTQLSNLGSTETLEEMPSGSQDKSAPSGHKHLTVEELFGTSLPKEQPAVVGLDSEEMERLPGDASQKEPNSFLPFPFEQLGGAPQSETLGVPSAAHHSVQPEITTPVLITPASITQSNEKHAPTYTIPLSPVLSPTLPAEAPTAQVPPSLPRNSTMMQAVKTTPRQRSPLLNQPVPELSHASLIANQSPFRAPLNVTNTAGTSLPSVDLLQKLRLTPQHDQIQTQPLGKGAMVASFSPAAGQLATPESFIEPPSKTAAARVAASASLSNMVLAPLQSMQQNQDPEVFVQPKVLSSAIPVAGAPLVTATTTAVSSVLLAPSVFQQTVTRSSDLERKASSPSPLTIGTPESQRKPSIILSKSQLQDTLIHLIKNDSSFLSTLHEVYLQVLTKNKDNHNL
B2: mRNA-decapping enzyme 1A (Homo sapiens), Q9NPI6 (parent)
chain: B1 chain
partner: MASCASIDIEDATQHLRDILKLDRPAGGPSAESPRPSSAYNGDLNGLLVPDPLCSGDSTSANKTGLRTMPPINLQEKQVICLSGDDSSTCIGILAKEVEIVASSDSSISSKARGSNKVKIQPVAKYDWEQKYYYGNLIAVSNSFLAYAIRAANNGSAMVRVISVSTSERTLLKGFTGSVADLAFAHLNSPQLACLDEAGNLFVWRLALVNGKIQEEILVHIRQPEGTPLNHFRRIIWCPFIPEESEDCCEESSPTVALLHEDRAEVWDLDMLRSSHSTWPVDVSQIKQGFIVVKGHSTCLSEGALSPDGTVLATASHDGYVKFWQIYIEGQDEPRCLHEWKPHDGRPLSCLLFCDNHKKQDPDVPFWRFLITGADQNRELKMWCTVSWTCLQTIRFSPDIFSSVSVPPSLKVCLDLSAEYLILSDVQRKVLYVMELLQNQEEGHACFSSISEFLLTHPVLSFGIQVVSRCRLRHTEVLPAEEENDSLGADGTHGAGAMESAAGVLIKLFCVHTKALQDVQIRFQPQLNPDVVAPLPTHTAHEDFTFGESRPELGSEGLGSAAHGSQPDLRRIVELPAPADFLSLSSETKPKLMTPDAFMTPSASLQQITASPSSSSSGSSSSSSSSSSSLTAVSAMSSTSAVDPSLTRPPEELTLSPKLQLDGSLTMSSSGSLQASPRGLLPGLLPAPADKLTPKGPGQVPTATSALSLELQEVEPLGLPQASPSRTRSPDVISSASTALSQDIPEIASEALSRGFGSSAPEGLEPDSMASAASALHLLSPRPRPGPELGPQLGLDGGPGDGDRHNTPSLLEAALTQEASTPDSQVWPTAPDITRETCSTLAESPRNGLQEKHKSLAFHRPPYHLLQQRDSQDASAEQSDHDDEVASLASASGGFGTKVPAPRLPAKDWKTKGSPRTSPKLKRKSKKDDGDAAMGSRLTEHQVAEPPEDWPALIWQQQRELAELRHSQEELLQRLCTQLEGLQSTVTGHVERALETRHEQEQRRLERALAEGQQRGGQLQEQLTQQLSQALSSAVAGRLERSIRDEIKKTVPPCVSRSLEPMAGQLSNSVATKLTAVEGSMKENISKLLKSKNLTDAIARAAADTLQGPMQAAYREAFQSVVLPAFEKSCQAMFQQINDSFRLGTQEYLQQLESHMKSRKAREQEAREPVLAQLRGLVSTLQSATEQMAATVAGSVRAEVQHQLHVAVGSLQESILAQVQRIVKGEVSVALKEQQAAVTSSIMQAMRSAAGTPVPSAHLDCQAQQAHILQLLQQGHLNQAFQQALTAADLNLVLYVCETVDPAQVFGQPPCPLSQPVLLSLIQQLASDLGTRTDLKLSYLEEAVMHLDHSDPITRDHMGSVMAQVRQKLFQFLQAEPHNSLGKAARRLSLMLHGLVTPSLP

In the first test the parent is B1. As to conditions: with dcp2_human DCP2, Q8IU60.
As to I552S;I555R;L562E, the “effect of a mutation on the interaction” value is listed as “disrupting interaction”.

As for L551R;I555S;F561R;L565S, the “effect of a mutation on the interaction” value is “disrupting interaction”.

For L554S;F561R;L565S, the “effect of a mutation on the interaction” value is “disrupting interaction”.

The next test covers variants of B2. As to conditions: with edc4_human EDC4, Q6P2E9.
For the variant L551R;I555S;F561R;L565S, the “effect of a mutation on the interaction” value was “disrupting interaction”. On the same count and under the same terms, in the case of I552S;I555R;L562E it was “disrupting interaction”; in that of L554S;F561R;L565S, “disrupting interaction”.
